This is an account of results in patent publication US20260250420A1 (SICHUAN KELUN BIOTECH BIOPHARMACEUTICAL, published 2026).

For experiment [1], the target named is T1, mouse PTK7 protein (extracellular sequence of mouse PTK7 with C-terminal 6×His tag) (mouse, UniProt Q8BKG3 23-696).
T1 construct: extracellular domain; Expressed transiently in HEK293 cells
T1 sequence: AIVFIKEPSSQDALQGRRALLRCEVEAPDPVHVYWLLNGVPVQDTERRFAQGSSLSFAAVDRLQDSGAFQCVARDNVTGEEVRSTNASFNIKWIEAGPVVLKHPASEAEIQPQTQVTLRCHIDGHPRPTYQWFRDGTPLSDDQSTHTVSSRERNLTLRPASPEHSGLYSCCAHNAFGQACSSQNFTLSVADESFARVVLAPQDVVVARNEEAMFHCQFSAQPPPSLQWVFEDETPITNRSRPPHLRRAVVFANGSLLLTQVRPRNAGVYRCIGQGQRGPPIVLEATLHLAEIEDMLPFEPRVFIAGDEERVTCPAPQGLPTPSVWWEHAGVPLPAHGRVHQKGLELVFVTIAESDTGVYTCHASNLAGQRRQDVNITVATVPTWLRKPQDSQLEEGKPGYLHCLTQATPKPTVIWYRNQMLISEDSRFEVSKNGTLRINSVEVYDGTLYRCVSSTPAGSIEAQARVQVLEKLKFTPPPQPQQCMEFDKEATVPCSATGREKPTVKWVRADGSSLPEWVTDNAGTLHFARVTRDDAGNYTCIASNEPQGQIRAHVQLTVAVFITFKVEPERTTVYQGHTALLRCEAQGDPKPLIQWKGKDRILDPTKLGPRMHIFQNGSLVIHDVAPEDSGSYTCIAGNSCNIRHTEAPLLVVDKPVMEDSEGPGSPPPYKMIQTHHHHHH
Description: BLI (ForteBio), antibody on Protein A sensor. The text has this:
The dynamic affinity of the control Hu24 and candidate antibodies 64A10HZ, 101A6HZ, 4E12HZ and 19C2HZ with human PTK7-His was detected by using ForteBio (Pall life sciences).
ELISA and ForteBio were adopted to detect binding of the anti-human PTK7 chimeric and humanized antibodies to the monkey, mouse and rat PTK7 proteins.
A general note: In BLI a coated tip is dipped into the sample, and binding shifts an interference pattern.

Experiment [2] has as its target T2, human PTK7 on cells (tumor cells endogenously expressing PTK7); CHO-hPTK7, CHO-S-hPTK7 and 293T-hPTK7 … (human, UniProt Q13308 31-1070).
T2 construct: whole, on cells; The cell line of each value is named under assay; also called H1299; H358
T2 sequence (looked up): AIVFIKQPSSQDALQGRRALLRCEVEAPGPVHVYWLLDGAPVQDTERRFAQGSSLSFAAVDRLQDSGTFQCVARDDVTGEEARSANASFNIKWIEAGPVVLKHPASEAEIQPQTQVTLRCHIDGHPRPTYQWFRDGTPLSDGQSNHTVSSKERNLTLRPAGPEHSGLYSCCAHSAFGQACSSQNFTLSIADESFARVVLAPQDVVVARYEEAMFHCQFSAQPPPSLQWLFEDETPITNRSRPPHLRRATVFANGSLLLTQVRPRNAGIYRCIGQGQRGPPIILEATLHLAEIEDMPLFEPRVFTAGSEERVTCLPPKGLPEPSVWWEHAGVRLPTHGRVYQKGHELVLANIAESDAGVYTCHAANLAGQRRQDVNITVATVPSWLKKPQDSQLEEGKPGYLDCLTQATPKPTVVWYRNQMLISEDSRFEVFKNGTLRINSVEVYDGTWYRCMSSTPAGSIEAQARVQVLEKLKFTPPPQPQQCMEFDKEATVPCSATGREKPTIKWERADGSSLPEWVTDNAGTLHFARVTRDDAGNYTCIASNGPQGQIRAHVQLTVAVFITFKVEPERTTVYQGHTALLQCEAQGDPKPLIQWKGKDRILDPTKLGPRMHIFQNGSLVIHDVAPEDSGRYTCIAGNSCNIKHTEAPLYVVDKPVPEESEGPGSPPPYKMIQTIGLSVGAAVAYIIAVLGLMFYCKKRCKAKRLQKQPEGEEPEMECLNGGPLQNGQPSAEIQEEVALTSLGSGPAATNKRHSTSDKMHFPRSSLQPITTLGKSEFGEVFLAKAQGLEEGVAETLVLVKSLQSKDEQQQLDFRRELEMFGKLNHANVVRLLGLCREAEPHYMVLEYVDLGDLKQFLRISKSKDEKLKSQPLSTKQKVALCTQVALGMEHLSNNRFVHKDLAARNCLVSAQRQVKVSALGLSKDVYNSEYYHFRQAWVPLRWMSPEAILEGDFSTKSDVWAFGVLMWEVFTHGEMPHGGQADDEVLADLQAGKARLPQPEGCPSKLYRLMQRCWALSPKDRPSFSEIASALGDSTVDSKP
Put plainly: competition flow cytometry on 293T-hPTK7 cells, streptavidin-PE; competitor: biotin-labelled 101A6HZ.

B1: 101A6HZ (anti-human PTK7 humanized antibody) (antibody, human IgG1, kappa)
heavy: not shown
light: DIVMTQSPDSLAVSLGERATINCKASQDVGSAVIWYQQKPGQSPKLLIYWASTRHTGVPDRFSGSGSGTDFTLTISSLQAEDVAVYYCQQYSSYPLTFGQGTKLEIKRTVAAPSVFIFPPSDEQLKSGTASVVCLLNNFYPREAKVQWKVDNALQSGNSQESVTEQDSKDSTYSLSSTLTLSKADYEKHKVYACEVTHQGLSSPVTKSFNRGEC
As to B1, the binding result in experiment [1] is “no binding”. The “IC50 (read off the curve)” value in experiment [2] was approximately 1 µg/mL.
